Source: patent US5726050

Target: double-stranded RNA adenosine deaminase (dsrad, 140 kDa Z-DNA binding protein) (Gallus gallus) (UniProt A0A8V1AB28)
Assay: competition
Conditions: bandshift competition

UniProt A0A8V1AB28, sequence (A0A8V1AB28 entry or part of it): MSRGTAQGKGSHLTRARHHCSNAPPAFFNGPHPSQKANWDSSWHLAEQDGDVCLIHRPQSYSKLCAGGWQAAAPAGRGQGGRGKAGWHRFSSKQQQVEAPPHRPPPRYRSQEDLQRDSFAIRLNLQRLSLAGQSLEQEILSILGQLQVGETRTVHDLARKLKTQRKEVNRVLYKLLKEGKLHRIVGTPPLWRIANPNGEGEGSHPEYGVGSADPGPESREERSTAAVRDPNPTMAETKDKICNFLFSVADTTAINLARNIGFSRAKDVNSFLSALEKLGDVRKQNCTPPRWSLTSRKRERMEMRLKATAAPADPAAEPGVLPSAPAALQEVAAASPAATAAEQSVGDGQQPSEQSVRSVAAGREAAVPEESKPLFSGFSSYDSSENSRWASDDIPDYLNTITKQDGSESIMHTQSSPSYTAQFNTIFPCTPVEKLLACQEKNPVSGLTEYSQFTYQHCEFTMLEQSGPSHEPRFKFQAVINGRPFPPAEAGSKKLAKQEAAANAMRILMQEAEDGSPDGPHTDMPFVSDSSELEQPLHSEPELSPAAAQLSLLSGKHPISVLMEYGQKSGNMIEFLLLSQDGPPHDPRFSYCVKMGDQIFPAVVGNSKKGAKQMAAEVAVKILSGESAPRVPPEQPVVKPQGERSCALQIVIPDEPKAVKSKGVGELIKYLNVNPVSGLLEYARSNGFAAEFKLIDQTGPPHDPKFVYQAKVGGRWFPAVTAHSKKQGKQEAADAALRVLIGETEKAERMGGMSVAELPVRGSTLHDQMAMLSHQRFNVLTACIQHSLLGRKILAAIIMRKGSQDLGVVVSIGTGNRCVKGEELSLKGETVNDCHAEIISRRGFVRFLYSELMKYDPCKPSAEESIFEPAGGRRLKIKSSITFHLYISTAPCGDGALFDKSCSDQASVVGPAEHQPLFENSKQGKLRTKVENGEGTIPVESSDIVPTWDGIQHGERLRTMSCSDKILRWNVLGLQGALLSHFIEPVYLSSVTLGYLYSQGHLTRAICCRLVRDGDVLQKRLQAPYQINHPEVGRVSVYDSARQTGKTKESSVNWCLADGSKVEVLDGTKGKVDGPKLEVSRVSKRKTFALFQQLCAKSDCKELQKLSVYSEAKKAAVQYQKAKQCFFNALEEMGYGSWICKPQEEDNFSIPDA

Substance	binding signal (fold weaker than supercoiled) (relaxed with calf thymus topoisomerase I)	binding signal (reference, bacterial superhelical density)
pDHg16 relaxed by topoisomerase I	100	–
pDHg16 supercoiled plasmid with d(CG)13 insert	–	1 fold
